Laboratory results: FireProtDB (doi:10.1021/bi00067a022)

Settings: Bacillus amyloliquefaciens, pH 6.3, 25 °C, Fluorescence, MES 450 mM, reversible: yes, whole UniProt chain shown

B1: Ribonuclease wild type, P00648 (protein)
chain: MMKMEGIALKKRLSWISVCLLVLVSAAGMLFSTAAKTETSSHKAHTEAQVINTFDGVADYLQTYHKLPDNYITKSEAQALGWVASKGNLADVAPGKSIGGDIFSNREGKLPGKSGRTWREADINYTSGFRNSDRILYSSDWLIYKTTDHYQTFTKIR
In the case of B1, the denaturant m value (GdnHCl) is reported as 4.4 kcal/mol/M, the “denaturant midpoint (higher = more stable)” value (GdnHCl) is reported as 2 M and the unfolding free energy (GdnHCl) is reported as 8.8 kcal/mol. The denaturant m value (Urea) was 1.92 kcal/mol/M, the “denaturant midpoint (higher = more stable)” value (Urea) was 4.58 M and the unfolding free energy (Urea) was 8.79 kcal/mol.
